Residue numbers refer to the chain shown, from its start.

The term EC50 denotes the concentration needed to bring the measured effect to its halfway point. Low readings indicate higher potency in that assay, high ones lower potency in that assay. The term Kd denotes the concentration at which binding is half-saturated. By koff is commonly meant the first-order rate constant of dissociation. The term kon denotes a measure of how fast the partners come together.

Assay [1] has as its target T1, human CD73 on the cell surface (human, UniProt P21589 27-549).
T1 sequence: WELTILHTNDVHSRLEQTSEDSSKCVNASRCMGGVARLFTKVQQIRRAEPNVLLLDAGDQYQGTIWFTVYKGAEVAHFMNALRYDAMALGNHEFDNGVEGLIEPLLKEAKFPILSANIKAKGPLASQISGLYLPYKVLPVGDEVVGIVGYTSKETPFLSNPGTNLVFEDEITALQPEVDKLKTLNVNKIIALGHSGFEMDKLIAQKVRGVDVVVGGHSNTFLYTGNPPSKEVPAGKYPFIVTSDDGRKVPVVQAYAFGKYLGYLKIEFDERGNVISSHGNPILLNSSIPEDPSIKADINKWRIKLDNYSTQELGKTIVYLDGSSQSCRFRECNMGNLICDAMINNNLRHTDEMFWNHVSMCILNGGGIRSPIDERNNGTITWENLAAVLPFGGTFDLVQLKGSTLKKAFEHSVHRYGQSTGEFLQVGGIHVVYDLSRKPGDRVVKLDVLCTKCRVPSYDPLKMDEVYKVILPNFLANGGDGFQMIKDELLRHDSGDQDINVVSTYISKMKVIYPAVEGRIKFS
The experiment in a line: cell-based or functional assay.

The target in assay [2] is T1, human CD73 on the cell surface. The experiment in a line: flow cytometry on SK-OV-3 cells. How it is done:
Binding was measured using an FACSCanto (Becton-Dickinson), and the results are presented in FIG. 8 (see also the table below).

For assay [3], the target named is T2, recombinant human CD73 protein (human, UniProt P21589 27-547).
T2 sequence: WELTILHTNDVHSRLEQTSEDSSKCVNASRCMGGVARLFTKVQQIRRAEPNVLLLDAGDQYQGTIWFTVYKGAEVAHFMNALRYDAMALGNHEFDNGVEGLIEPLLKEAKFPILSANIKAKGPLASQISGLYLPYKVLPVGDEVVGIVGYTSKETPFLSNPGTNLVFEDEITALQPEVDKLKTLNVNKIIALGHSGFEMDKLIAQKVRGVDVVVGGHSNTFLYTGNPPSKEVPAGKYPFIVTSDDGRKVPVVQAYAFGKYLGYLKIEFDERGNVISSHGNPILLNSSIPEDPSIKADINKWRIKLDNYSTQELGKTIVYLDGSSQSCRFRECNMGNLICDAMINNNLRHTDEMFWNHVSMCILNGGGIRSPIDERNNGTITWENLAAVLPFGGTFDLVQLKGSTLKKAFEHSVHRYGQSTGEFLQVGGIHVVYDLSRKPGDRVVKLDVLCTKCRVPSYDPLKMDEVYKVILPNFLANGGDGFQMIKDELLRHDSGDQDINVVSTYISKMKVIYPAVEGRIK
Briefly: cell-based or functional assay.

Assay [4] addresses T2, recombinant human CD73 protein. The experiment in a line: SPR, Biacore T200, antibody captured by anti-human Fc IgG, antigen as analyte, 1:1 model, 25 C. How it is done:
For the binding assay, the Biacore T200 system was used through human antibody capture approach. The anti-human Fc lgG were immobilized on CMS sensor chip according to the manufactory's instruction. The test antibody was injected and captured by the immobilized anti-human Fc lgG. And then serial concentrations of antigen was individually injected, and the binding profile was recorded for each concentration antigen analyte, respectively. The assay system was regenerated by injection of 10 mM Glycine-HCl pH 1.5 for 30 seconds. The running buffer was HBS-EP+(10 mM HEPES, pH 7.4, 150 mM NaCl, 3 mM EDTA and 0.05% P20). The assay temperature was 25° C., and the association and dissociation time were 180 and 600 seconds, respectively.
(SPR reads the build-up and loss of mass on a sensor chip optically.)

Assay [5] addresses T3, D399A.
T3 construct: also called CD73 variant D399A
T3 CD73 subunit: T1 sequence with D373A
The experiment in a line: high-throughput flow cytometry on cells expressing the CD73 variant, in duplicate; mean (range). How it is done: (§1) To identify the epitope of Hu101-28, a library of clones of single amino acid-mutated CD73 variants was made. Binding of Hu101-28 Fab to each variant in the library was determined, in duplicate, by high-throughput flow cytometry. For each CD73 variant, the mean binding value was plotted as a function of CD73 expression (represented by control reactivity) on chart and critical residues were identified from the chart. Critical residues for CD73 Fab binding (outlined in red) were identified as those whose mutations were negative for test Fab binding, but positive for the control MAbs. The mean binding reactivities (and ranges) are listed for the critical residues identified in the screens, and are shown in FIG. 23.

Assay [6] deals with T4, E400A.
T4 construct: also called CD73 variant E400A
T4 CD73 subunit: T1 sequence with E374A
The description is as above. How it is done: as §1

The target in assay [7] is T5, R401A.
T5 construct: also called CD73 variant R401A
T5 CD73 subunit: T1 sequence with R375A
The description is as above. How it is done:
as §1

Assay [8] addresses T6, Y345A.
T6 construct: also called CD73 variant Y345A
T6 CD73 subunit: T1 sequence with Y319A
Described as above. How it is done:
as §1

In assay [9] the target is T3, D399A. The experiment in a line: high-throughput flow cytometry on cells expressing the CD73 variant. How it is done:
as §1
Background: In flow cytometry, cells or beads pass a laser one at a time.

The target of assay [10] is T4, E400A. The description is as above. How it is done:
as §1

The target of assay [11] is T5, R401A. The description is as above. How it is done:
as §1

Assay [12] concerns the target T6, Y345A. Described as above. How it is done:
as §1

B1: Hu101-25 (antibody, V domains shown)
VH: EVQLQESGPGLVKPSETLSLTCAVSGYSISSGYYWNWIRQPPGKGLEWIGYINYGGSNGYNPSLKSRVTISRDTSKNQFSLKLSSVTAADTAVYYCARDYDAYYEALDDWGQGTTVTVSS
VL: EIVLSQSPATLSLSPGERATLSCRASSRVNYMHWYQQKPGQSPRPWISATSNLASGVPARFSGSGSGTSYTLTISSLEPEDFAVYYCQQWSSNPPTFGGGTKVEIK
notes: also called humanized anti-CD73 antibody Hu101-25
Take B1: in assay [1], the “IC50 (nM), inhibition of CD73 enzymatic activity on SK-OV-3 cells” value is 2.98 nM. Moreover, in assay [2], it took 2.38 nM to reach a half-maximal effect (EC50). Moreover, the “IC50 (nM), inhibition of recombinant CD73 enzymatic activity” value in assay [3] was determined as 4.72 nM. Besides, in [4], the Kd was determined as 0.747 nM, the koff turned out to be 5.51e-05 s⁻¹ and the kon was found to be 73700 M⁻¹ s⁻¹.

B2: Hu101-28 Fab (Fab, V domains shown)
VH: B1 VH with S30T, G45K, I49M, V68I
VL: B1 VL
notes: also called test Fab; CD73 Fab
B2: the “Binding Reactivity (% WT)” value in the assay with D399A [5] was 1.8 % WT; with E400A [6], 3.6 % WT; in the assay with R401A [7], 1.1 % WT; with Y345A [8] it was 2.7 % WT. In addition, the binding result with D399A [9], with E400A [10], with R401A [11] and in the assay with Y345A [12] was “no binding” in each case.

Values taken from patent publication US20200332005A1 (I MAB, published 2020).
